This is an account of results in article PMC8528823.

The pKd is the negative decadic logarithm of the Kd, by convention in mol/L. A higher pKd goes with a low Kd.

pKd: −log10 of the molar value.

The experiment addresses Mouse Fc (mFc) tagged mink ACE2 (mink (Neovison vison)). Description: SPR.

For “SARS-CoV-2 WT RBD (from UniProt P0DTC2 319-541) (domain or fragment)”, the pKd is 5.09.
